Target: human complement factor H (CFH) (human) (UniProt P08603)
Test: ELISA; […] (20 mM HEPES, 50 mM NaCl, pH 7.4) […]

Chain of human complement factor H (CFH) (human) (P08603 19-1231): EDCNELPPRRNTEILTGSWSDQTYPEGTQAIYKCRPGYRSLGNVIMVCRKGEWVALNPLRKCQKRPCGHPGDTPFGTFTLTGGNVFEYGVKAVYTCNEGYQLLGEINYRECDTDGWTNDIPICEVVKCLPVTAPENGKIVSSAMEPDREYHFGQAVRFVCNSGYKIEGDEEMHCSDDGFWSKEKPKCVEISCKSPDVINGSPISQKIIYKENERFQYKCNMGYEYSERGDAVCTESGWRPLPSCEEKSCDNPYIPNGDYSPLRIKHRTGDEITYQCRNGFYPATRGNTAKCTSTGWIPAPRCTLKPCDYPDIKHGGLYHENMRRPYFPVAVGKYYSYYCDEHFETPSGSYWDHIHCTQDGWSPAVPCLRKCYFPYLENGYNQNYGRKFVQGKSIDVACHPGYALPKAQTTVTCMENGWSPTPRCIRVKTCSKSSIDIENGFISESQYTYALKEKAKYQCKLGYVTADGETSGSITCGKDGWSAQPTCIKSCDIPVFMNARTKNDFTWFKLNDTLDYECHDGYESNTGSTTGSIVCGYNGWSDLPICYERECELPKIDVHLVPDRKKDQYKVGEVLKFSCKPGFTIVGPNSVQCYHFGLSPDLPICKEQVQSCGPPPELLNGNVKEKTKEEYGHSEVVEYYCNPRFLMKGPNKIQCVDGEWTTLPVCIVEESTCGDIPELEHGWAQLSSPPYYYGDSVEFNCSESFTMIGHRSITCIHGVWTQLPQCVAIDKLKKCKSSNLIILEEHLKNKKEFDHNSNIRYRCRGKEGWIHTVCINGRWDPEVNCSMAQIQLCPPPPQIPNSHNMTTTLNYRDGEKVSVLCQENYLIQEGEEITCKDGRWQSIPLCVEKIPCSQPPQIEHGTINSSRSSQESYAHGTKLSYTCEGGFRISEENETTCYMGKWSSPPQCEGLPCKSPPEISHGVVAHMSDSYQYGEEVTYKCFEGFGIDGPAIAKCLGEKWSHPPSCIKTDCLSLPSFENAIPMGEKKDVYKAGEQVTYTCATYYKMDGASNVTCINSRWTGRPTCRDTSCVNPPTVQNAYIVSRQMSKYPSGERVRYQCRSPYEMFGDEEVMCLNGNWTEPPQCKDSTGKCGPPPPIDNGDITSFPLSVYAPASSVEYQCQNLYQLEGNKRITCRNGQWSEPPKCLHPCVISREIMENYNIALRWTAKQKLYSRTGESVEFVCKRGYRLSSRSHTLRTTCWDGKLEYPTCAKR

## Recombinant BclA protein (rBclA), His-tagged (from UniProt Q81JD7 1-382) (natural protein)
  Kd: 910 nM
